Assay [1] addresses T1, human CD20 (human) (UniProt P11836).
T1 sequence (looked up): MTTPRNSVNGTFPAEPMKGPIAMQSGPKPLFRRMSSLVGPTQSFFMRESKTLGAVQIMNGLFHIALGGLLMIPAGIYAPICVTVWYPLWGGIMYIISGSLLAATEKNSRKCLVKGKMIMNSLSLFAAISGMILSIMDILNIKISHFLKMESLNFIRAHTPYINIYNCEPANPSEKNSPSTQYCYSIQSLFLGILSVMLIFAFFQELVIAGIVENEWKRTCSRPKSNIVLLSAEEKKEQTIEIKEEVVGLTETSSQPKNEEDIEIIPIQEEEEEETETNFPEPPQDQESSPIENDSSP
Description: Scatchard, competition with 125I-2H7.v16 on WIL2-S cells, n=3.

Assay [2] has as its target T1, human CD20 (human). Description: cell-based or functional assay.
For assay [3], the target named is T2, human CD20 (human, UniProt P11836 1-297).
T2 construct: whole, on cells; also called Bp35
T2 sequence (looked up): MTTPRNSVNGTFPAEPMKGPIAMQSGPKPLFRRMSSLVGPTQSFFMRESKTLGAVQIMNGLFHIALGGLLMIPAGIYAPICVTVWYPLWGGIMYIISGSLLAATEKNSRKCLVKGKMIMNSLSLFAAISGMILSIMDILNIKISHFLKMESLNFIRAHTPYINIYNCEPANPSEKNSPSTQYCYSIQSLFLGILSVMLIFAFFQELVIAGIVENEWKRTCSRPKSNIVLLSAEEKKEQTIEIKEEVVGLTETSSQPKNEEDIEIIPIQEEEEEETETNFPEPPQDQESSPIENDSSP
Description: cell ELISA, WIL2-S; v16 as comparator, normalised to chimera. (In general: ELISA stands for enzyme-linked immunosorbent assay.)

Assay [4] has as its target T2, human CD20. Description: Scatchard, competition with 125I-2H7.v16 on WIL2-S cells, n=4.

Molecule RITUXAN (rituximab) (antibody) yielded a Kd in assay [1] of 0.99 nM. In assay [2], this molecule registered an ADCC, EC50(variant)/EC50(2H7.v16) of 5.3; an ADCC, EC50(variant)/EC50(RITUXAN) of 1; a CDC, EC50(variant)/EC50(RITUXAN) of 1.

B1: 2H7.v138 (antibody, human IgG1, kappa, V domains shown)
VH: EVQLVESGGGLVQPGGSLRLSCAASGYTFTSYNMHWVRQAPGKGLEWVGAIYPGNGATSYNQKFKGRFTISVDKSKNTLYLQMNSLRAEDTAVYYCARVVYYSASYWYFDVWGQGTLVTVSS
VL: DIQMTQSPSSLSASVGDRVTITCRASSSVSYLHWYQQKPGKAPKPLIYAPSNLASGVPSRFSGSGSGTDFTLTISSLQPEDFATYYCQQWAFNPPTFGQGTKVEIKR
Regarding B1, in assay [3], the relative binding (ratio to v6.8) was 1.2.

B2: 2H7.v73 (antibody, V domains shown)
VH: EVQLVESGGGLVQPGGSLRLSCAASGYTFTSYNMHWVRQAPGKGLEWVGAIYPGNGDTSYNQKFKGRFTISVDKSKNTLYLQMNSLRAEDTAVYYCARVVYYSASYWYFDVWGQGTLVTVSS
VL: DIQMTQSPSSLSASVGDRVTITCRASSSVSYLHWYQQKPGKAPKPLIYAPSNLASGVPSRFSGSGSGTDFTLTISSLQPEDFATYYCQQWSFNPPTFGQGTKVEIKR
Regarding B2, in assay [4], binding was characterised by a dissociation constant (Kd) of 1.22 nM.

In general, Kd refers to a measure of binding affinity in units of concentration.

These data come from patent CN101022829A (GENENTECH INC, dated 2007).
